Here are results for 53 variants from the Human Domainome abundance scans (Beltran et al. 2025).

B1: DnaJ homolog subfamily C member 2, residues 451 to 503; numbered along this chain, Q99543 (parent)
chain: SKNWSEDDLQLLIKAVNLFPAGTNSRWEVIANYMNIHSSSGVKRTAKDVIGKA
B2: Formin-binding protein 4, residues 593 to 636; numbered along this chain, Q8N3X1 (parent)
chain: EINATPKGWSCHWDRDHRRYFYVNEQSGESQWEFPDGEEEEEES

± gives the uncertainty stated by the source.

Variants of B1 are the subject of one data set. Description: abundance fitness (aPCA) (normalised: wild type 0, dead -1); higher = more abundant; growth selection in yeast, the domain comes from the species named. The conditions noted are these: Homo sapiens.
Turning to YKNWSEDDLQLLIKAVNLFPAGTNSRWEVIANYMNIHSSSGVKRTAKDVIGKA [S1Y], the abundance fitness was -0.37 ± 0.14.

Turning to GKNWSEDDLQLLIKAVNLFPAGTNSRWEVIANYMNIHSSSGVKRTAKDVIGKA [S1G], the abundance fitness stood at 0.092 ± 0.092.

The next data set covers variants of B2. The data set is described as above. The conditions noted are these: Homo sapiens.
With EINATPKGWSCHWDRDHRRYFYVNEQSGESQWEFPDGEEEEYES [E42Y], the abundance fitness was -0.152 ± 0.14.

Turning to EINATPKGWSCHWDRDHRRYFYVNEQSGESQWEFPDGEEEEPES [E42P], the abundance fitness was determined as 0.004 ± 0.064.

With EINATPKGWSCHWDRDHRRYFYVNEQSGESQWEFPDGEEEEDES [E42D], the abundance fitness amounted to 0.038 ± 0.084.

On to EINATPKGWSCHWDRDHRRYFYVNEQSGESQWEFPDGEEEEHES [E42H], for which the abundance fitness was -0.009 ± 0.1.

Turning to EINATPKGWSCHWDRDHRRYFYVNEQSGESQWEFPDGEEEEGES [E42G], the abundance fitness is 0.122 ± 0.061.

Consider EINATPKGWSCHWDRDHRRYFYVNEQSGESQWEFPDGEEEEFES [E42F], for which the abundance fitness was -0.368 ± 0.16.

In the case of EINATPKGWSCHWDRDHRRYFYVNEQSGESQWEFPDGEEEETES [E42T], the abundance fitness was 0.026 ± 0.073.

Regarding EINATPKGWSCHWDRDHRRYFYVNEQSGESQWEFPDGEEEEKES [E42K], the abundance fitness was 0.022 ± 0.11.

Turning to EINATPKGWSCHWDRDHRRYFYVNEQSGESQWEFPDGEEEELES [E42L], the abundance fitness was -0.073 ± 0.069.

EINATPKGWSCHWDRDHRRYFYVNEQSGESQWEFPDGEEEEWES [E42W]: the abundance fitness was -0.283 ± 0.087.

Turning to EINATPKGWSCHWDRDHRRYFYVNEQSGESQWEFPDGEEEEMES [E42M], the abundance fitness was found to be 0.038 ± 0.11.

On to EINATPKGWSCHWDRDHRRYFYVNEQSGESQWEFPDGEEEEAES [E42A], for which the abundance fitness was 0.04 ± 0.061.

On to EINATPKGWSCHWDRDHRRYFYVNEQSGESQWEFPDGEEEESES [E42S], for which the abundance fitness came out at 0.032 ± 0.073.

On to EINATPKGWSCHWDRDHRRYFYVNEQSGESQWEFPDGEEEEVES [E42V], for which the abundance fitness was -0.005 ± 0.07.

With EINATPKGWSCHWDRDHRRYFYVNEQSGESQWEFPDGEEEERES [E42R], the abundance fitness stood at 0.01 ± 0.057.

Regarding EINATPKGWSCHWDRDHRRYFYVNEQSGESQWEFPDGEEEECES [E42C], the abundance fitness was -0.023 ± 0.064.

Take EINATPKGWSCHWDRDHRRYFYVNEQSGESQWEFPDGEEEEIES [E42I]: the abundance fitness is -0.409 ± 0.12.

As for EINATPKGWSCHWDRDHRRYFYVNEQSGESQWEFPDGEEEYEES [E41Y], the abundance fitness was -0.502 ± 0.19.

For EINATPKGWSCHWDRDHRRYFYVNEQSGESQWEFPDGEEESEES [E41S], the abundance fitness is -0.139 ± 0.092.

Turning to EINATPKGWSCHWDRDHRRYFYVNEQSGESQWEFPDGEEEVEES [E41V], the abundance fitness was 0.042 ± 0.065.

As to EINATPKGWSCHWDRDHRRYFYVNEQSGESQWEFPDGEEELEES [E41L], the abundance fitness is -0.1 ± 0.073.

Turning to EINATPKGWSCHWDRDHRRYFYVNEQSGESQWEFPDGEEETEES [E41T], the abundance fitness is -0.011 ± 0.065.

With EINATPKGWSCHWDRDHRRYFYVNEQSGESQWEFPDGEEEREES [E41R], the abundance fitness was determined as 0.007 ± 0.059.

EINATPKGWSCHWDRDHRRYFYVNEQSGESQWEFPDGEEEQEES [E41Q]: the abundance fitness was found to be 0.056 ± 0.091.

In the case of EINATPKGWSCHWDRDHRRYFYVNEQSGESQWEFPDGEEENEES [E41N], the abundance fitness is -0.109 ± 0.083.

Turning to EINATPKGWSCHWDRDHRRYFYVNEQSGESQWEFPDGEEEPEES [E41P], the abundance fitness was 0.031 ± 0.078.

Regarding EINATPKGWSCHWDRDHRRYFYVNEQSGESQWEFPDGEEEMEES [E41M], the abundance fitness is -0.064 ± 0.11.

As for EINATPKGWSCHWDRDHRRYFYVNEQSGESQWEFPDGEEEEEDS [E43D], the abundance fitness was -0.02 ± 0.13.

In the case of EINATPKGWSCHWDRDHRRYFYVNEQSGESQWEFPDGEEEEEKS [E43K], the abundance fitness amounted to 0.021 ± 0.092.

As for EINATPKGWSCHWDRDHRRYFYVNEQSGESQWEFPDGEEEEEMS [E43M], the abundance fitness was -0.148 ± 0.11.

Consider EINATPKGWSCHWDRDHRRYFYVNEQSGESQWEFPDGEEEEENS [E43N], for which the abundance fitness is -0.08 ± 0.15.

On to EINATPKGWSCHWDRDHRRYFYVNEQSGESQWEFPDGEEEEEPS [E43P], for which the abundance fitness turned out to be 0.044 ± 0.083.

On to EINATPKGWSCHWDRDHRRYFYVNEQSGESQWEFPDGEEEEEVS [E43V], for which the abundance fitness was 0.046 ± 0.079.

As for EINATPKGWSCHWDRDHRRYFYVNEQSGESQWEFPDGEEEEEAS [E43A], the abundance fitness was found to be 0.068 ± 0.07.

Turning to EINATPKGWSCHWDRDHRRYFYVNEQSGESQWEFPDGEEEEESS [E43S], the abundance fitness was determined as 0.041 ± 0.078.

With EINATPKGWSCHWDRDHRRYFYVNEQSGESQWEFPDGEEEEEQS [E43Q], the abundance fitness is -0.433 ± 0.3.

Consider EINATPKGWSCHWDRDHRRYFYVNEQSGESQWEFPDGEEEEEWS [E43W], for which the abundance fitness was -0.197 ± 0.093.

Regarding EINATPKGWSCHWDRDHRRYFYVNEQSGESQWEFPDGEEEEERS [E43R], the abundance fitness is -0.056 ± 0.077.

Regarding EINATPKGWSCHWDRDHRRYFYVNEQSGESQWEFPDGEEEEEGS [E43G], the abundance fitness stood at 0.021 ± 0.082.

On to EINATPKGWSCHWDRDHRRYFYVNEQSGESQWEFPDGEEEEEFS [E43F], for which the abundance fitness came out at 0.248 ± 0.3.

Turning to EINATPKGWSCHWDRDHRRYFYVNEQSGESQWEFPDGEEEEETS [E43T], the abundance fitness is 0.008 ± 0.089.

As to EINATPKGWSCHWDRDHRRYFYVNEQSGESQWEFPDGEEEEELS [E43L], the abundance fitness was -0.086 ± 0.093.

For EINATPKGWSCHWDRDHRRYFYVNEQSGESQWEFPDGEEEEEED [S44D], the abundance fitness was -0.043 ± 0.3.

Take EINATPKGWSCHWDRDHRRYFYVNEQSGESQWEFPDGEEEEEER [S44R]: the abundance fitness stood at 0.025 ± 0.3.

As for EINATPKGWSCHWDRDHRRYFYVNEQSGESQWEFPDGEEEEEEV [S44V], the abundance fitness came out at 0.253 ± 0.16.

With EINATPKGWSCHWDRDHRRYFYVNEQSGESQWEFPDGEEEEEEM [S44M], the abundance fitness is -0.536 ± 0.17.

As for EINATPKGWSCHWDRDHRRYFYVNEQSGESQWEFPDGEEEEEEG [S44G], the abundance fitness worked out at 0.083 ± 0.098.

As to EINATPKGWSCHWDRDHRRYFYVNEQSGESQWEFPDGEEEEEEQ [S44Q], the abundance fitness came out at 0.247 ± 0.19.

As for EINATPKGWSCHWDRDHRRYFYVNEQSGESQWEFPDGEEEEEEH [S44H], the abundance fitness was -0.013 ± 0.2.

Take EINATPKGWSCHWDRDHRRYFYVNEQSGESQWEFPDGEEEEEEL [S44L]: the abundance fitness was -0.194 ± 0.12.

Take EINATPKGWSCHWDRDHRRYFYVNEQSGESQWEFPDGEEEEEET [S44T]: the abundance fitness is -0.084 ± 0.33.
